Patent US20050032186, “Regulatory zinc finger proteins” (published 2005)

Experiments:
[1] = molecular target: F2607 (artificial (human zinc finger domains)); test: cell_activity; endogenous VEGF-A conc., unit inferred; parental vector 400; conditions: tags: HA, NLS, p65
[2] = molecular target: F2615 (artificial (human zinc finger domains)); test: cell_activity; endogenous VEGF-A conc., unit not given; parental vector 400; conditions: tags: HA, NLS, p65
[3] = molecular target: F2634 (artificial (human zinc finger domains)); test: as above; conditions: tags: HA, NLS, p65
Chain of F2634 (artificial (human zinc finger domains)) (chain, as listed by the source): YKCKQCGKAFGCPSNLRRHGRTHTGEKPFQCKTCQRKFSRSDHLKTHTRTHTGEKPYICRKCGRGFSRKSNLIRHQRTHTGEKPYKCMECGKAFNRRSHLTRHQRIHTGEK

[4] = molecular target: F475 (artificial (human zinc finger domains)); test: as above
Chain of F475 (artificial (human zinc finger domains)) (chain, as listed by the source): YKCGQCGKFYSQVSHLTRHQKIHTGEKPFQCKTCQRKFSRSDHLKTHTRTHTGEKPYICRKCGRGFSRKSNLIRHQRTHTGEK

[5] = molecular target: F2650 (artificial (human zinc finger domains)); test: as above; conditions: tags: HA, NLS, p65
Chain of F2650 (artificial (human zinc finger domains)) (chain, as listed by the source): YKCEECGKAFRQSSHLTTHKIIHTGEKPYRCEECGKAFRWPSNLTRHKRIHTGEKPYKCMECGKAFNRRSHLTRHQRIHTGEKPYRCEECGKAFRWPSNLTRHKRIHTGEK

[6] = molecular target: F2610 (artificial (human zinc finger domains)); test: as above; conditions: tags: HA, NLS, p65
Chain of F2610 (artificial (human zinc finger domains)) (chain, as listed by the source): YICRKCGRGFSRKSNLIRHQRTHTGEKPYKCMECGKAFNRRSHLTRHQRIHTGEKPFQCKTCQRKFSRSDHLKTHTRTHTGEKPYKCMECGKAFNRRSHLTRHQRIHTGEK

[7] = molecular target: F480 (artificial (human zinc finger domains)); test: as above
Chain of F480 (artificial (human zinc finger domains)) (chain, as listed by the source): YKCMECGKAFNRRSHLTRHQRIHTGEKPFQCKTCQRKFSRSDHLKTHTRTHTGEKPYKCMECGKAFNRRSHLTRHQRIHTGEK

[8] = molecular target: F2646 (artificial (human zinc finger domains)); test: as above; conditions: tags: HA, NLS, p65
Chain of F2646 (artificial (human zinc finger domains)) (chain, as listed by the source): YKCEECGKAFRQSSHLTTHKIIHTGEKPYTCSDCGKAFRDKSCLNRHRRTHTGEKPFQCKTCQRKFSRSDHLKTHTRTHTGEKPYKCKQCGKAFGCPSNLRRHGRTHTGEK

[9] = molecular target: F121 (artificial (human zinc finger domains)); test: cell_activity; endogenous VEGF-A conc., unit inferred; parental vector 400
Chain of F121 (artificial (human zinc finger domains)) (chain, as listed by the source): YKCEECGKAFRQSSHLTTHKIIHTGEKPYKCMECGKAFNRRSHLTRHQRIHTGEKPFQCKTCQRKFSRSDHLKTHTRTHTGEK

[10] = molecular target: F121-KRAB (artificial (human zinc finger domains)); test: cell_activity; luciferase reporter with native VEGF promoter -950 to +450, 293 cells, 30 ng plasmid; conditions: tags: HA, NLS
Method: (§1) Human embryonic kidney 293 cells were maintained in Dulbecco's modified Eagle medium (DMEM) supplemented with 100 units/ml penicillin, 100 μg/ml streptomycin, and 10% fetal bovine serum (FBS). For the luciferase assay, 10⁴ cells/well were pre-cultured in a 96-well plate. Using a LIPOFECTAMINE™ transfection kit (Life Technologies, Rockville, Md.), 293 cells were transfected with 25 ng of a reporter plasmid in which the native VEGF-A promoter was fused to the luciferase gene in pGL3-basic (Promega), and 25 ng of a plasmid encoding a zinc finger protein. After 48 h of incubation, luciferase activity was measured with a DUAL LUCIFERASE™ assay kit (Promega) using a TD-20/20 luminometer (Turner Designs Inc., Sunnyvale, Calif.).
(§2) 293 cells were transfected with luciferase reporter plasmid pGL3-VEGFprom containing native human VEGF promoter(−950 to +450 from the transcription initiation site) and 30 ng of pLFD-F121-KRAB or pLFD-F109-KRAB. Luciferase activity was measured as described. Fold repression values were calculated by normalizing the firefly luciferase activity against the renilla luciferase activity and the result was compared with that of the control wherein 293 cells were transfected with the control vector pLFD and the reporter plasmid.

[11] = molecular target: F2679 (artificial (human zinc finger domains)); test: cell_activity; endogenous VEGF-A conc., unit inferred; parental vector 400; conditions: tags: HA, NLS, p65
Chain of F2679 (artificial (human zinc finger domains)) (chain, as listed by the source): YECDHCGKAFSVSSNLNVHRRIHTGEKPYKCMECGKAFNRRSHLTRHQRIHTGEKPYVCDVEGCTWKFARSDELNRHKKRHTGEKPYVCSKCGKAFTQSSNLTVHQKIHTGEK

[12] = molecular target: F2605 (artificial (human zinc finger domains)); test: cell_activity; endogenous VEGF-A conc., unit not given; parental vector 400; conditions: tags: HA, NLS, p65
Chain of F2605 (artificial (human zinc finger domains)) (chain, as listed by the source): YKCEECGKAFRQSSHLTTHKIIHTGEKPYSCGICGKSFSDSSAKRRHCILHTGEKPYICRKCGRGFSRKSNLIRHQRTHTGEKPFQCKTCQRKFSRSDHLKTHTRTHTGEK

[13] = molecular target: F2604 (artificial (human zinc finger domains)); test: as above; conditions: tags: HA, NLS, p65
Chain of F2604 (artificial (human zinc finger domains)) (chain, as listed by the source): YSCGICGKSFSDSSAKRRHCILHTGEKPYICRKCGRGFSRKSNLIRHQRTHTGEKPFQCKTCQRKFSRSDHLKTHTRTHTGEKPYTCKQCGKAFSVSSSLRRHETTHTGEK

[14] = molecular target: F2644 (artificial (human zinc finger domains)); test: as above; conditions: tags: HA, NLS, p65
Chain of F2644 (artificial (human zinc finger domains)) (chain, as listed by the source): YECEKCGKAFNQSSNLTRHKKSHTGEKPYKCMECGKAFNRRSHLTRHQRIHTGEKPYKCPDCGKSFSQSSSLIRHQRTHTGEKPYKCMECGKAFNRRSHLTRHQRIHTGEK

[15] = molecular target: F109-KRAB (artificial (human zinc finger domains)); test: cell_activity; luciferase reporter with native VEGF promoter -950 to +450, 293 cells, 30 ng plasmid; conditions: tags: HA, NLS
Chain of F109-KRAB (artificial (human zinc finger domains)) (chain, as listed by the source): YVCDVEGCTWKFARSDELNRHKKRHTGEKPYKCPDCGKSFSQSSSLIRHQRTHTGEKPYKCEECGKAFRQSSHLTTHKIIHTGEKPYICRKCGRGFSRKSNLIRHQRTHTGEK
Method: as §1, §2

[16] = molecular target: F2612 (artificial (human zinc finger domains)); test: cell_activity; endogenous VEGF-A conc., unit inferred; parental vector 400; conditions: tags: HA, NLS, p65
Chain of F2612 (artificial (human zinc finger domains)) (chain, as listed by the source): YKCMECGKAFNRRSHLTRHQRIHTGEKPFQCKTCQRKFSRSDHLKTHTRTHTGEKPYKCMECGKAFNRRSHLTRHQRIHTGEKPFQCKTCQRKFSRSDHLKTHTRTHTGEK

[17] = molecular target: F2638 (artificial (human zinc finger domains)); test: cell_activity; endogenous VEGF-A conc., unit not given; parental vector 400; conditions: tags: HA, NLS, p65
Chain of F2638 (artificial (human zinc finger domains)) (chain, as listed by the source): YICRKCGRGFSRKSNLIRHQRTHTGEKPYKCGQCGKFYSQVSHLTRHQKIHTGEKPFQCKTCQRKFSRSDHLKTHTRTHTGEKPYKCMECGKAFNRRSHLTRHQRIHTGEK

[18] = molecular target: F2633 (artificial (human zinc finger domains)); test: as above; conditions: tags: HA, NLS, p65
Chain of F2633 (artificial (human zinc finger domains)) (chain, as listed by the source): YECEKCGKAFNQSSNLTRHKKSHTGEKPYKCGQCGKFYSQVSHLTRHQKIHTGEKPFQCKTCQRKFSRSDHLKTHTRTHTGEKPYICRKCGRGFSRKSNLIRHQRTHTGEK

Chain of F2607 (artificial (human zinc finger domains)) (chain, as listed by the source): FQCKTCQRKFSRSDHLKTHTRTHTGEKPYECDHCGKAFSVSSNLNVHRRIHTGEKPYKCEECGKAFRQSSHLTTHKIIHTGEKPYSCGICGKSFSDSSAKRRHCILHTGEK
Chain of F2615 (artificial (human zinc finger domains)) (chain, as listed by the source): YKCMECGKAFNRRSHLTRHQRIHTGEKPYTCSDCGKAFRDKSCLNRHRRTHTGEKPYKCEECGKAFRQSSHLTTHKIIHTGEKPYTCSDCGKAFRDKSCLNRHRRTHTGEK

B1: VEGF-A -671 (dsDNA)
DNA 1: GTCAGAAATAGG
DNA 2: CCTATTTCTGAC
- activity [1]: 1600 pg/mL

B2: VEGF-A -606 (dsDNA)
DNA 1: GCCAGAGCCGGG
DNA 2: CCCGGCTCTGGC
- activity [2]: 2700

B3: VEGF-A -395R (dsDNA)
DNA 1: GGGGAGAGGGAC
DNA 2: GTCCCTCTCCCC
- activity [3]: 2100

B4: VEGF-A -455 (9 bp) (dsDNA)
DNA 1: GAGCGGGGA
DNA 2: TCCCCGCTC
- activity [4]: 4150

B5: VEGF-A -206 (dsDNA)
DNA 1: GGTGGGGGTCGA
DNA 2: TCGACCCCCACC
- activity [5]: 4400

B6: VEGF-A -633R (12 bp) (dsDNA)
DNA 1: GGGTGGGGGGAG
DNA 2: CTCCCCCCACCC
- activity [6]: 2300

B7: VEGF-A -633R (9 bp) (dsDNA)
DNA 1: GGGTGGGGG
DNA 2: CCCCCACCC
- activity [7]: 3100

B8: VEGF-A -314R (dsDNA)
DNA 1: GACAGGGCCTGA
DNA 2: TCAGGCCCTGTC
- activity [8]: 3400

B9: VEGF-A +434 (dsDNA)
DNA 1: TGGGGGTGA
DNA 2: TCACCCCCA
- activity [9]: 1300 pg/mL
- activity [10]: 8.7 fold repression

B10: VEGF-A +244R (dsDNA)
DNA 1: CAAGTGGGGAAT
DNA 2: ATTCCCCACTTG
- activity [11]: 1500 pg/mL

B11: VEGF-A -677 (dsDNA)
DNA 1: TGGGAGGTCAGA
DNA 2: TCTGACCTCCCA
- activity [12]: 3700

B12: VEGF-A -680 (dsDNA)
DNA 1: GTTTGGGAGGTC
DNA 2: GACCTCCCAAAC
- activity [13]: 1000

B13: VEGF-A -358R (dsDNA)
DNA 1: GGGGCAGGGGAA
DNA 2: TTCCCCTGCCCC
- activity [14]: 4200

B14: VEGF-A -536 (dsDNA)
DNA 1: GAGCGAGCAGCG
DNA 2: CGCTGCTCGCTC
- activity [15]: 6.1 fold repression

B15: VEGF-A -630R (dsDNA)
DNA 1: AGGGGGTGGGGG
DNA 2: CCCCCACCCCCT
- activity [16]: 2000 pg/mL

B16: VEGF-A -391R (12 bp) (dsDNA)
DNA 1: GGGTGGGGAGAG
DNA 2: CTCTCCCCACCC
- activity [17]: 1900

B17: VEGF-A -455 (12 bp) (dsDNA)
DNA 1: GAGCGGGGAGAA
DNA 2: TTCTCCCCGCTC
- activity [18]: 4500
